What was measured:
[1] = biological target: the molecule itself; experiment: non-reducing SDS-PAGE with Western blot; 15% gel, non-reducing conditions, semi-dry transfer to nitrocellulose, anti-hBMP-2 rabbit IgG 1:2000; periplasmic fluid of W3110 grown at 30 °C and 42 °C
[2] = biological target: the molecule itself; experiment: non-reducing SDS-PAGE; 15% polyacrylamide gel, non-reducing conditions, Coomassie Brilliant Blue G-250 staining; bought reference preparation

B1: periplasmic human bone morphogenetic protein-2 (hBMP-2 Biosintesis) (natural protein, UniProt P12643 283-396, looked up)
chain: QAKHKQRKRLKSSCKRHPLYVDFSDVGWNDWIVAPPGYHAFYCHGECPFPLADHLNSTNHAIVQTLVNSVNSKIPKACCVPTELSAISMLYLDENEKVVLKNYQDMVVEGCGCR
notes: authentic form without the initial methionine; monomer ~13 kDa, dimer ~26 kDa; also called authentic hBMP-2; our hBMP-2; source: E. coli W3110 with pλPL-DsbA-BMP-2, periplasmic fluid extracted by osmotic shock
stoichiometry N [1]: 2

B2: met-hBMP-2 reference preparation from GenScript (natural protein, human)
chain: MQAKHKQRKRLKSSCKRHPLYVDFSDVGWNDWIVAPPGYHAFYCHGECPFPLADHLNSTNHAIVQTLVNSVNSKIPKACCVPTELSAISMLYLDENEKVVLKNYQDMVVEGCGCR
notes: initial methionine typical of the cytoplasmic product, told in words (met-hBMP-2); human bone morphogenetic protein-2; vendor declares dimeric form (~26 kDa); Commercial product; also called hBMP-2 GenScript; GenScript hBMP-2; source: bought: GenScript (cytoplasmic, E. coli-derived)
stoichiometry N [2]: 2
